Measured values taken from paper PMC2187830 (The Journal of Experimental Medicine, 1990).

Assays:
murine IL-7 receptor [1] = biological target: T1, murine IL-7 receptor (mouse (endogenous in IxN/2b), UniProt P16872 21-459); assay: radioligand binding
T1 sequence: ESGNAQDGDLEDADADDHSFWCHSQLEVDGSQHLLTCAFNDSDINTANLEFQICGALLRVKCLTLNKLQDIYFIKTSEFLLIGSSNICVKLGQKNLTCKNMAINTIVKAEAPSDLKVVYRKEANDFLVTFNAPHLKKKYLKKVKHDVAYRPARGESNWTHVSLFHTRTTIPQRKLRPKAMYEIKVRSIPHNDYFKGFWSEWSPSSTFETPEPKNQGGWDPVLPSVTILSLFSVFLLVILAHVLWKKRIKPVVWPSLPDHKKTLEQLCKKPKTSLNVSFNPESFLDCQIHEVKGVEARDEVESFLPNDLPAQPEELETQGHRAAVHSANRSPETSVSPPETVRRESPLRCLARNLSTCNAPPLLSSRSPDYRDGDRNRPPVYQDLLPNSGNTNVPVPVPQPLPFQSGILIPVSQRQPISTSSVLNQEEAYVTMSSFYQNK

murine IL-7 receptor [2] = biological target: T1, murine IL-7 receptor; assay: radioligand binding; remark: listed apart in the source

B1: 125I-labeled recombinant murine IL-7 (ligand)
chain: ECHIKDKEGKAYESVLMISIDELDKMTGTDSNCPNNEPNFFRKHVCDDTKEAAFLNRAARKLKQFLKMNISEEFNVHLLTVSQGTQTLVNCTSKEEKNVKEQKKNDACFLKRLLREIKTCWNKILKGSI
modifications: 125I on the single tyrosine residue (amino acid 12), nearly quantitatively radiolabeled
Murine IL-7 receptor [1]
  apparent Ka, high affinity component: 1.2e+10 M⁻¹
Murine IL-7 receptor [2]
  apparent Ka, low affinity component: 4.8e+08 M⁻¹
